Test results: PMC7145548

Columns and labels:
[1] = target: T1, hsRosR (Halobacterium salinarum (Halobacterium …, UniProt Q9HSF4 1-116)); test: fluorescence anisotropy
T1 sequence: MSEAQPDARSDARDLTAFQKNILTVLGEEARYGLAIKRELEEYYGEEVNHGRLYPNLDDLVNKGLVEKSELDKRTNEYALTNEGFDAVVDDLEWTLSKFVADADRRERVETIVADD

[2] = target: T1, hsRosR; test: fluorescence anisotropy; remark: listed apart in the source
[3] = target: T1, hsRosR; test: ITC
[4] = target: T1, hsRosR; test: ITC; remark: listed apart in the source
[5] = target: T1, hsRosR; test: fluorescence anisotropy; remark: listed apart in the source
[6] = target: T1, hsRosR; test: fluorescence anisotropy; remark: listed apart in the source
[7] = target: T1, hsRosR; test: fluorescence anisotropy; remark: listed apart in the source
[8] = target: T1, hsRosR; test: fluorescence anisotropy; remark: listed apart in the source
[9] = target: T1, hsRosR; test: fluorescence anisotropy; remark: listed apart in the source
[10] = target: T1, hsRosR; test: X-ray crystallography
[11] = target: T1, hsRosR; test: X-ray crystallography; remark: listed apart in the source
[12] = target: T1, hsRosR; test: X-ray crystallography; remark: listed apart in the source

B1: S2 (dsDNA)
DNA 1: GCGCTCATGTCAACCTTCTTACACTTCCTCTCCCG
DNA 2: CGGGAGAGGAAGTGTAAGAAGGTTGACATGAGCGC
Kd [1]: 60.1 ± 18.8 nM

B2: S1 (35 bp) (dsDNA)
DNA 1: GCGAGGTGTAAATTGTCTGACATGTTCTTATTGGG
DNA 2: CCCAATAAGAACATGTCAGACAATTTACACCTCGC
Kd [2]: 49.3 ± 6.18 nM

B3: S1 (25 bp) (dsDNA)
DNA 1: GTGTAAATTGTCTGACATGTTCTTA
DNA 2: TAAGAACATGTCAGACAATTTACAC
Kd [3]: 259 ± 9.75 nM | Kd [4]: 91 ± 3.25 nM | Kd [5]: 169 ± 30.2 nM | Kd [2]: 37.2 ± 2.36 nM | Kd [6]: 25.9 ± 2.02 nM | Kd [7]: 78.3 ± 8.34 nM | Kd [8]: 80.2 ± 10.2 nM | Kd [9]: 24 ± 3.37 nM

B4: SG (28 bp) (dsDNA)
DNA 1: GCGACGTGTATTTCCCCTGACACTAGCG
DNA 2: CGCTAGTGTCAGGGGAAATACACGTCGC
binding result [10]: binds

B5: S1 (28 bp) (dsDNA)
DNA 1: GCGAGGTGTAAATTGTCTGACATGTTCT
DNA 2: AGAACATGTCAGACAATTTACACCTCGC
Kd [2]: 53.5 ± 6.54 nM

B6: S4 (28 bp) (dsDNA)
DNA 1: CCGAAGTGTAAACGCGTTGACATGTGGT
DNA 2: ACCACATGTCAACGCGTTTACACTTCGG
binding result [11]: binds

B7: GS1 (dsDNA)
DNA 1: TAATAGACAGGGAGATCGATGTCTGCTA
DNA 2: TAGCAGACATCGATCTCCCTGTCTATTA
binding result [2]: no binding

B8: GS2 (first) (dsDNA)
DNA 1: ATCGGGACAATCGCGTCTCTGTCGATCG
DNA 2: CGATCGACAGAGACGCGATTGTCCCGAT
binding result [2]: no binding

B9: GS2 (second) (dsDNA)
DNA 1: TTGAATTTGTGGGGGCAGGGACAGCCCTGA
DNA 2: TCAGGGCTGTCCCTGCCCCCACAAATTCAA
binding result [2]: no binding

B10: S4 (35 bp) (dsDNA)
DNA 1: GCCCGAAGTGTAAACGCGTTGACATGTGGTGCTGG
DNA 2: CCAGCACCACATGTCAACGCGTTTACACTTCGGGC
Kd [1]: 91.6 ± 13.2 nM

B11: S5 (35 bp) (dsDNA)
DNA 1: GCGAAGTGTCATCCCTCTTACATGACTTGTCTTGG
DNA 2: CCAAGACAAGTCATGTAAGAGGGATGACACTTCGC
Kd [1]: 99.5 ± 10.6 nM

B12: S5 (28 bp) (dsDNA)
DNA 1: GCGAAGTGTCATCCCTCTTACATGACTT
DNA 2: AAGTCATGTAAGAGGGATGACACTTCGC
binding result [12]: binds

B13: GS5 (dsDNA)
DNA 1: AGCGAGGACACTGCTGGCGGTGTCGCCGTC
DNA 2: GACGGCGACACCGCCAGCAGTGTCCTCGCT
binding result [2]: no binding

B14: S3 (dsDNA)
DNA 1: GCACATGTAAGTCTATTGACATGTTCTTTCCCTCG
DNA 2: CGAGGGAAAGAACATGTCAATAGACTTACATGTGC
Kd [1]: 68 ± 11.3 nM
